Measurements as given in patent US20030109691A1.

Experiments:
complement iC3b [1] = biological target: complement iC3b (UniProt P01024); test: SPR (BIAcore), iC3b on CM5 chip, A domain flowed
CD54 (ICAM-1) = CD54 (ICAM-1) (UniProt P05362); test: SPR (BIAcore), CD54 on CM5 chip, A domain flowed; linear transformation, mean±SD, n=2
complement iC3b [2] = biological target: complement iC3b (UniProt P01024); test: SPR (BIAcore), iC3b on CM5 chip, A domain flowed; linear transformation, mean±SD, n=2
fibrinogen = fibrinogen (UniProt P02671); test: SPR (BIAcore), fibrinogen on CM5 chip, A domain flowed; linear transformation, mean±SD, n=2
Chain of fibrinogen (P02671 20-629 limits assumed, chain 1 of 3): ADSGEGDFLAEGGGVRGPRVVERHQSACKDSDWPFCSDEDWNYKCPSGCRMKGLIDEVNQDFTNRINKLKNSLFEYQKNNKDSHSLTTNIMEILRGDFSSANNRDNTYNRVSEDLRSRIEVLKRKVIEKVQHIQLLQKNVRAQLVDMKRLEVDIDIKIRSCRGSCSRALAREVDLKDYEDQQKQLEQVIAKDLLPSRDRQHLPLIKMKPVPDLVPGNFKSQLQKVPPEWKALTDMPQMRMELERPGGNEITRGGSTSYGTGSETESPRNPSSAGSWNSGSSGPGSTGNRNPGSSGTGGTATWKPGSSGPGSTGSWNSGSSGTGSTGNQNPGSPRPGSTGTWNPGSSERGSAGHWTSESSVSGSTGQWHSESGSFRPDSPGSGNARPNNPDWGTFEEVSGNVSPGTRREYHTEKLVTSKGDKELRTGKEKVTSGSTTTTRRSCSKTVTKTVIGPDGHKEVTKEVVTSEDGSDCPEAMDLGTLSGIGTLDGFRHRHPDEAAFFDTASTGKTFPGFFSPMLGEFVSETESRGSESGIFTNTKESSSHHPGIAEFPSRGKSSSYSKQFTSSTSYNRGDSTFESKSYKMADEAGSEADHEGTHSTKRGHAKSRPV
Chain of fibrinogen (P02675 31-491 limits assumed, chain 2 of 3, further chain): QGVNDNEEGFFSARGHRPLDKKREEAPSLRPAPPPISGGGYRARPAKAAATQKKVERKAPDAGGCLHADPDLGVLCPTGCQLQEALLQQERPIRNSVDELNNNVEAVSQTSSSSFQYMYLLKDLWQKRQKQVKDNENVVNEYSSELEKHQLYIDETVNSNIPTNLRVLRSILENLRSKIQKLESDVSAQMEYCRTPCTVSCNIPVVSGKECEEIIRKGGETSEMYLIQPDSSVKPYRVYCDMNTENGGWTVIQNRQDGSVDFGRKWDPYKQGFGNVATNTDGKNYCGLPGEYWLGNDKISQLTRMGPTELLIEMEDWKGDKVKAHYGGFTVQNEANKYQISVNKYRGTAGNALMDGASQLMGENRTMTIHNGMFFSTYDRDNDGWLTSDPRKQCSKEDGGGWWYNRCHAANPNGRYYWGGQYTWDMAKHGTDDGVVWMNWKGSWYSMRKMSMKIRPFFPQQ
Chain of fibrinogen (P02679 other isoform, or with tags, fused parts or gaps limits assumed, chain 3 of 3, further chain): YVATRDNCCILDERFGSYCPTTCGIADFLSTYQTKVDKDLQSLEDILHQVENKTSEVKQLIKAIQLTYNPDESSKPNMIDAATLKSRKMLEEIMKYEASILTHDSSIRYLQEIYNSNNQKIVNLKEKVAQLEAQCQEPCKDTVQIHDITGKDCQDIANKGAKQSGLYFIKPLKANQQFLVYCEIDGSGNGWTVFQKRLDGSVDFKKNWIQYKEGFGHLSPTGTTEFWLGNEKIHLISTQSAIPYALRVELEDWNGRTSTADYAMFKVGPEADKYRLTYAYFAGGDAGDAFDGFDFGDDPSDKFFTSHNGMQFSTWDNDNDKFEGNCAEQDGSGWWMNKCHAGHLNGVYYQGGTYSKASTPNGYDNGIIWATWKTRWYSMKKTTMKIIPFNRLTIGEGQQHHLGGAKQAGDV

Chain of CD54 (ICAM-1) (P05362 28-480 limits assumed): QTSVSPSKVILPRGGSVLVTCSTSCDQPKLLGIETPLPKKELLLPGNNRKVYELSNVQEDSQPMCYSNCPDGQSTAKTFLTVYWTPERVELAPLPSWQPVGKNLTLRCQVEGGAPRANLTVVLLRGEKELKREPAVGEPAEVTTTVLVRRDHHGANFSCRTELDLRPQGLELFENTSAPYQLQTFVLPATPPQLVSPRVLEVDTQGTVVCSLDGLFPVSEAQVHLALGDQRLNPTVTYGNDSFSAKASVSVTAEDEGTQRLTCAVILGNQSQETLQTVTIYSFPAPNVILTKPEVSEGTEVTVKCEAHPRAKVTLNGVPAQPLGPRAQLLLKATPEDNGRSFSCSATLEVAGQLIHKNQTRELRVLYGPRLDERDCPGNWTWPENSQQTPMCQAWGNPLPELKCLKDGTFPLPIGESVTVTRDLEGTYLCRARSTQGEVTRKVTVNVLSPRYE

Kd (complement iC3b [1]) [nM] | Kd (CD54 (ICAM-1)) [nM] | Kd (complement iC3b [2]) [nM] | Kd (fibrinogen) [nM] | Substance
660 | – | – | – | variant CD11b A domain with an Ile to Gly change at residue 316 (11bA^I→G) (from UniProt P11215 139-337) (receptor)
– | 220 | 460 | 250 | variant CD11b A domain consisting of amino acids E123 to K315 (11bA^123-315) (from UniProt P11215 139-331) (receptor)
